# Laboratory results taken from PMC2773741.
# What was measured:
# [1] = target: cone-rod homeobox (CRX), V5-tagged (UniProt O43186); test: co-immunoprecipitation, band densitometry normalized to input; conditions: COS-1 cells cotransfected; detection mouse anti-Xpress; parent: est. 100; read off a plot
# [2] = target: neural retina leucine zipper (NRL), V5-tagged (UniProt P54845); test: as above; conditions: COS-1 cells cotransfected; IP goat anti-V5; detection mouse anti-Xpress; parent: est. 100; read off a plot
# Sequence of neural retina leucine zipper (NRL), V5-tagged (P54845 whole entry): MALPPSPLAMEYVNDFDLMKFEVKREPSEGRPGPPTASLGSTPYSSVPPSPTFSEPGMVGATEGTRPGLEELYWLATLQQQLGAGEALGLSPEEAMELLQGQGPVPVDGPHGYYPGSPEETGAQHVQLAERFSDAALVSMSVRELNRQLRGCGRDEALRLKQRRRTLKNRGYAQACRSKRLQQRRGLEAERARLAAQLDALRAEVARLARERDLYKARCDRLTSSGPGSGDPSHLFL
# Sequence of cone-rod homeobox (CRX), V5-tagged (O43186 whole entry): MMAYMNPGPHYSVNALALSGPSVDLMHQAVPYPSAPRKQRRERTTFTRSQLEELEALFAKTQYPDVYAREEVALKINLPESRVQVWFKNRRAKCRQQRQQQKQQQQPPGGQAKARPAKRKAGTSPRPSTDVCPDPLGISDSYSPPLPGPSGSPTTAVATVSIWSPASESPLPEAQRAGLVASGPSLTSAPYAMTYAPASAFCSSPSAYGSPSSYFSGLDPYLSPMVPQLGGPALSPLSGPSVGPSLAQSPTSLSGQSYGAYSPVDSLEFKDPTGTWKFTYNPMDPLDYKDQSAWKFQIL
# Sequence of photoreceptor-specific nuclear receptor NR2E3 (nuclear receptor subfamily 2 group E member 3), wild type, Q9Y5X4-1 p.G56R (Q9Y5X4 whole entry G56R): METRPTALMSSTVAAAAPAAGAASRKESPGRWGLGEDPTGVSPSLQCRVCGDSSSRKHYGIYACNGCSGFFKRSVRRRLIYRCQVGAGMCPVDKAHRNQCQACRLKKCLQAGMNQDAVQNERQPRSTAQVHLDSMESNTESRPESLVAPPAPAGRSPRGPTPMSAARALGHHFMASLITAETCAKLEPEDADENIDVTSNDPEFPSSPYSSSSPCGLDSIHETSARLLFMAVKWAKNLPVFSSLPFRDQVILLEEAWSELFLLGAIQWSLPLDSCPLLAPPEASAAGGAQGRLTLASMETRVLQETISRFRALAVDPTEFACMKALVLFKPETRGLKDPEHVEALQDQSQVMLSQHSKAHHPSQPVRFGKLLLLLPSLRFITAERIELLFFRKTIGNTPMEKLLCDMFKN
# Sequence of photoreceptor-specific nuclear receptor NR2E3 (nuclear receptor subfamily 2 group E member 3), wild type, Q9Y5X4-1 p.G88V (Q9Y5X4 whole entry G88V): as the sequence (Q9Y5X4 whole entry G56R) above, with R56G, G88V counted along it
# Sequence of photoreceptor-specific nuclear receptor NR2E3 (nuclear receptor subfamily 2 group E member 3), wild type, Q9Y5X4-1 p.R309G (Q9Y5X4 whole entry R309G): as the sequence (Q9Y5X4 whole entry G56R) above, with R56G, R309G counted along it
# Sequence of photoreceptor-specific nuclear receptor NR2E3 (nuclear receptor subfamily 2 group E member 3), wild type, Q9Y5X4-1 p.N65_C67del (Q9Y5X4 other isoform, or with tags, fused parts or gaps p.N65_C67del): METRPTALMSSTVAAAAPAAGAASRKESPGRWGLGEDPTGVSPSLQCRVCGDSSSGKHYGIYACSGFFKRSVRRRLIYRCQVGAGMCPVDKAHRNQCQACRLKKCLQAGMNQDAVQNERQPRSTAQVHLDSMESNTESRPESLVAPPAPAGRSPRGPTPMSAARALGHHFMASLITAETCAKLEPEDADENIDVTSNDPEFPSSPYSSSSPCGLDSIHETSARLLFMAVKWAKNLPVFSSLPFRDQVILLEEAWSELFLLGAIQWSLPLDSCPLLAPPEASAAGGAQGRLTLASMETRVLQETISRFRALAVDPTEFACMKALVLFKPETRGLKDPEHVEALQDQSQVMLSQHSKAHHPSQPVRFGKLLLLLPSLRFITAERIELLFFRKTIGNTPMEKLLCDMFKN
# Sequence of photoreceptor-specific nuclear receptor NR2E3 (nuclear receptor subfamily 2 group E member 3), wild type, Q9Y5X4-1 p.R97H (Q9Y5X4 whole entry R97H): as the sequence (Q9Y5X4 whole entry G56R) above, with R56G, R97H counted along it
# Sequence of photoreceptor-specific nuclear receptor NR2E3 (nuclear receptor subfamily 2 group E member 3), wild type, Q9Y5X4-1 p.L263P (Q9Y5X4 whole entry L263P): as the sequence (Q9Y5X4 whole entry G56R) above, with R56G, L263P counted along it
# Sequence of photoreceptor-specific nuclear receptor NR2E3 (nuclear receptor subfamily 2 group E member 3), wild type, Q9Y5X4-1 p.W234S (Q9Y5X4 whole entry W234S): as the sequence (Q9Y5X4 whole entry G56R) above, with R56G, W234S counted along it
# Sequence of photoreceptor-specific nuclear receptor NR2E3 (nuclear receptor subfamily 2 group E member 3), wild type, Q9Y5X4-1 p.V302I (Q9Y5X4 whole entry V302I): as the sequence (Q9Y5X4 whole entry G56R) above, with R56G, V302I counted along it
# Sequence of photoreceptor-specific nuclear receptor NR2E3 (nuclear receptor subfamily 2 group E member 3), wild type, Q9Y5X4-1 p.E121K (Q9Y5X4 whole entry E121K): as the sequence (Q9Y5X4 whole entry G56R) above, with R56G, E121K counted along it
# Sequence of photoreceptor-specific nuclear receptor NR2E3 (nuclear receptor subfamily 2 group E member 3), wild type, Q9Y5X4-1 p.R385P (Q9Y5X4 whole entry R385P): as the sequence (Q9Y5X4 whole entry G56R) above, with R56G, R385P counted along it
percent of parent [1],percent of parent [2],Substance
42%,100%,"photoreceptor-specific nuclear receptor NR2E3 (nuclear receptor subfamily 2 group E member 3), wild type, Q9Y5X4-1 p.R104Q"
88%,98%,"photoreceptor-specific nuclear receptor NR2E3 (nuclear receptor subfamily 2 group E member 3), wild type, Q9Y5X4-1 p.R76W"
95%,58%,"photoreceptor-specific nuclear receptor NR2E3 (nuclear receptor subfamily 2 group E member 3), wild type, Q9Y5X4-1 p.W234S"
84%,100%,"photoreceptor-specific nuclear receptor NR2E3 (nuclear receptor subfamily 2 group E member 3), wild type, Q9Y5X4-1 p.N65_C67del"
24%,16%,"photoreceptor-specific nuclear receptor NR2E3 (nuclear receptor subfamily 2 group E member 3), wild type, Q9Y5X4-1 p.L263P"
44%,74%,"photoreceptor-specific nuclear receptor NR2E3 (nuclear receptor subfamily 2 group E member 3), wild type, Q9Y5X4-1 p.R311Q"
60%,37%,"photoreceptor-specific nuclear receptor NR2E3 (nuclear receptor subfamily 2 group E member 3), wild type, Q9Y5X4-1 p.R385P"
30%,10%,"photoreceptor-specific nuclear receptor NR2E3 (nuclear receptor subfamily 2 group E member 3), wild type, Q9Y5X4-1 p.L353V"
81%,69%,"photoreceptor-specific nuclear receptor NR2E3 (nuclear receptor subfamily 2 group E member 3), wild type, Q9Y5X4-1 p.R334G"
95%,110%,"photoreceptor-specific nuclear receptor NR2E3 (nuclear receptor subfamily 2 group E member 3), wild type, Q9Y5X4-1 p.R76Q"
55%,62%,"photoreceptor-specific nuclear receptor NR2E3 (nuclear receptor subfamily 2 group E member 3), wild type, Q9Y5X4-1 p.A256E"
43%,110%,"photoreceptor-specific nuclear receptor NR2E3 (nuclear receptor subfamily 2 group E member 3), wild type, Q9Y5X4-1 p.R97H"
99%,110%,"photoreceptor-specific nuclear receptor NR2E3 (nuclear receptor subfamily 2 group E member 3), wild type, Q9Y5X4-1 p.G88V"
76%,61%,"photoreceptor-specific nuclear receptor NR2E3 (nuclear receptor subfamily 2 group E member 3), wild type, Q9Y5X4-1 p.M407K"
55%,37%,"photoreceptor-specific nuclear receptor NR2E3 (nuclear receptor subfamily 2 group E member 3), wild type, Q9Y5X4-1 p.R309G"
87%,120%,"photoreceptor-specific nuclear receptor NR2E3 (nuclear receptor subfamily 2 group E member 3), wild type, Q9Y5X4-1 p.E121K"
48%,110%,"photoreceptor-specific nuclear receptor NR2E3 (nuclear receptor subfamily 2 group E member 3), wild type, Q9Y5X4-1 p.G56R"
87%,87%,"photoreceptor-specific nuclear receptor NR2E3 (nuclear receptor subfamily 2 group E member 3), wild type, Q9Y5X4-1 p.V232I"
32%,10%,"photoreceptor-specific nuclear receptor NR2E3 (nuclear receptor subfamily 2 group E member 3), wild type, Q9Y5X4-1 p.L336P"
86%,56%,"photoreceptor-specific nuclear receptor NR2E3 (nuclear receptor subfamily 2 group E member 3), wild type, Q9Y5X4-1 p.V302I"
